In patent publication US20110165161A1, “ANTI-EPCAM ANTIBODIES THAT INDUCE APOPTOSIS OF CANCER CELLS AND METHODS USING SAME” (priority 2009, published 2011):

Columns and labels:
[1] = molecular target: T1, human EpCAM (epithelial cell adhesion/activating molecule) (human, UniProt P16422 24-314); assay: flow cytometry, CHO/EpCAM cells, 0.1 µg/ml antibody
T1 construct: also called hEpCAM; CHO/EpCAM
T1 sequence: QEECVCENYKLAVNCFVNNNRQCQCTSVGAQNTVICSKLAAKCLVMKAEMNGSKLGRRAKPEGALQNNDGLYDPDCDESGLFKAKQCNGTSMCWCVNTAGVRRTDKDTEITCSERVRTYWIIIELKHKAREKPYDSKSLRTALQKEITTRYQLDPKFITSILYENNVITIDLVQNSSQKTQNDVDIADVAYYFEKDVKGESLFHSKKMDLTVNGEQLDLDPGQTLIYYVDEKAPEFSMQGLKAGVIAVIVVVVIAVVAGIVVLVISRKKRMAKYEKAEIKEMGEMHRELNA
Description: A 300× dilution of human cell hyper-immune serum (HPS 300×) was used as binding positive control for both cell lines here. After 1 hr incubation at 4° C., cells were washed twice with 200 μl FACS buffer (1×PBS containing 1% FBS), stained with 100 μl of 1 μg/ml goat-anti-mouse IgG-PE (Southern Biotech, Cat. No. 1032-09) in FACS buffer and then incubated at 4° C. for 30 min. Cells were washed thrice with FACS buffer and analyzed by flow cytometry (BD LSR, BD Life Sciences).

EGFI-Cr1 Q45A = molecular target: T2, EGFI-Cr1 Q45A (human, UniProt P16422 24-63); assay: direct ELISA, coated EGFI-Cr1 fusion, 0.1 µg/ml antibody
T2 construct: not shown: the constant region of human immunoglobulin gamma 1 heavy chain (Cr1) fused at the C-terminus
T2 chain: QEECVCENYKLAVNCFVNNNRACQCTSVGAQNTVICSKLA
Description: (§1) A direct ELISA was used for testing the reactivity of anti-EpCAM antibodies toward variant EpCAM mutants. Briefly, purified EpCAM EGF-1 fusion proteins (WT, Q24A, E25K, E26D, A35T, N37R, F39A, V40E, N41A, N42E, N43A, R44G, Q45A, Q47A or T49A) and irrelevant control (CEA-Cr1) were pre-diluted to 0.5 μg/ml in coating buffer (8.4 g NaHCO₃, 3.4 g Na₂CO₃ in 1 L H₂O, pH 9.5) and aliquoted (100 μl/well) into 96-well plates. […] Plates were then washed 3 times with PBST followed by the addition of the enzyme substrate TMB (BD Biosciences, Cat. No. 555214). […] The optical densities at 450 nm wavelength were measured on an ELISA plate reader.

EGFI-Cr1 E26D = molecular target: T3, EGFI-Cr1 E26D (human, UniProt P16422 24-63); assay: as above
T3 construct: not shown: The fused constant region of human immunoglobulin gamma 1 heavy chain (Cr1)
T3 chain: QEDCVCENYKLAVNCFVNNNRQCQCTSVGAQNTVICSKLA
Description: as §1

EGFI-Cr1 A35T = molecular target: T4, EGFI-Cr1 A35T (human, UniProt P16422 24-63); assay: as above
T4 construct: not shown: The fused constant region of human immunoglobulin gamma 1 heavy chain (Cr1)
T4 chain: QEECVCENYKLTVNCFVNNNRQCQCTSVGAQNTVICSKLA
Description: as §1

EGFI-Cr1 N37R = molecular target: T5, EGFI-Cr1 N37R (human); assay: as above
T5 construct: not shown: The fused constant region of human immunoglobulin gamma 1 heavy chain (Cr1)
T5 chain: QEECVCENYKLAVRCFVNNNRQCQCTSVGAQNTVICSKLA
Description: as §1

EGFI-Cr1 N42E = molecular target: T6, EGFI-Cr1 N42E (human, UniProt P16422 24-63); assay: as above
T6 construct: not shown: the constant region of human immunoglobulin gamma 1 heavy chain (Cr1) fused at the C-terminus
T6 chain: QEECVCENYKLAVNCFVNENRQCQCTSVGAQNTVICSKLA
Description: as §1

EGFI-Cr1 N41A = molecular target: T7, EGFI-Cr1 N41A (human, UniProt P16422 24-63); assay: as above
T7 construct: not shown: The fused constant region of human immunoglobulin gamma 1 heavy chain (Cr1)
T7 chain: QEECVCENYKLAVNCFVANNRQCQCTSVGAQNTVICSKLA
Description: as §1

[2] = molecular target: T8, EGFI-Cr1 wild type (first EGF-like repeat of human EpCAM fused to the constant region of human immunoglobulin … (human, UniProt P01857-1 99-330 = IgG part)); assay: as above
T8 construct: cDNA covered aa 1-63; Expressed in COS-7 cells; also called WT; EpCAM EGF-1 fusion protein WT
Description: as §1

EGFI-Cr1 N43A = molecular target: T9, EGFI-Cr1 N43A (human, UniProt P16422 24-63); assay: as above
T9 construct: not shown: the constant region of human immunoglobulin gamma 1 heavy chain (Cr1) fused at the C-terminus
T9 chain: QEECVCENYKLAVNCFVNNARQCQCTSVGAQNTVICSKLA
Description: as §1

EGFI-Cr1 T49A = molecular target: T10, EGFI-Cr1 T49A (human, UniProt P16422 24-63); assay: as above
T10 construct: not shown: the constant region of human immunoglobulin gamma 1 heavy chain (Cr1) fused at the C-terminus
T10 chain: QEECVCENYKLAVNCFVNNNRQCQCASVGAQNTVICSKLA
Description: as §1

EGFI-Cr1 Q47A = molecular target: T11, EGFI-Cr1 Q47A (human, UniProt P16422 24-63); assay: as above
T11 construct: not shown: the constant region of human immunoglobulin gamma 1 heavy chain (Cr1) fused at the C-terminus
T11 chain: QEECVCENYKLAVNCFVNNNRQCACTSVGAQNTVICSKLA
Description: as §1

EGFI-Cr1 Q24A = molecular target: T12, EGFI-Cr1 Q24A (human, UniProt P16422 25-63); assay: as above
T12 construct: not shown: The fused constant region of human immunoglobulin gamma 1 heavy chain (Cr1)
T12 chain: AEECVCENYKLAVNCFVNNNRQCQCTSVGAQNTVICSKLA
Description: as §1

EGFI-Cr1 R44G = molecular target: T13, EGFI-Cr1 R44G (human, UniProt P16422 24-63); assay: as above
T13 construct: not shown: the constant region of human immunoglobulin gamma 1 heavy chain (Cr1) fused at the C-terminus
T13 chain: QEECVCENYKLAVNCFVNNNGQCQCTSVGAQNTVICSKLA
Description: as §1

EGFI-Cr1 V40E = molecular target: T14, EGFI-Cr1 V40E (human); assay: as above
T14 construct: not shown: The fused constant region of human immunoglobulin gamma 1 heavy chain (Cr1)
T14 chain: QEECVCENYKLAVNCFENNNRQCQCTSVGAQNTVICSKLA
Description: as §1

EGFI-Cr1 F39A = molecular target: T15, EGFI-Cr1 F39A (human, UniProt P16422 24-63); assay: as above
T15 construct: not shown: The fused constant region of human immunoglobulin gamma 1 heavy chain (Cr1)
T15 chain: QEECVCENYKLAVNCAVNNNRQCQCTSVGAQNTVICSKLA
Description: as §1

EGFI-Cr1 E25K = molecular target: T16, EGFI-Cr1 E25K (human, UniProt P16422 24-63); assay: as above
T16 construct: not shown: The fused constant region of human immunoglobulin gamma 1 heavy chain (Cr1)
T16 chain: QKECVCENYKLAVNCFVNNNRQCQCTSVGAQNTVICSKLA
Description: as §1

[3] = molecular target: T1, human EpCAM (epithelial cell …); assay: cell-based or functional assay
[4] = molecular target: T1, human EpCAM (epithelial cell …); assay: cell-based or functional assay; remark: listed apart in the source

B1: murine monoclonal antibody 12H8 (antibody, mouse IgG2a, V domains shown)
VH: QIQLVQSGPELKKPGETVKISCKTSGYTFTDYSMHWVNQAPGKGLKWMGWINTETGEPTYTDDFKGRFAFSLETSASTAYLQINNLKNEDTATYFCARTAVYWGQGTTLTVSS
VL: DIQMTQSPSSLSASLGERVSLTCRASQEISGSLSWLQQKPDGTIKRLIYAASTLNSGVPKRFSGRRSGSDYSLTISSLESEDFVDYYCLQYSSYPWSFGGGTKLEIKR
notes: Mouse IgG2a, kappa, from hybridoma; also called m342-12H8.3; m12H8
MFI [1]: 6650 MFI
relative binding activity (% of WT) (EGFI-Cr1 Q45A): 89%
relative binding activity (% of WT) (EGFI-Cr1 E26D): 94%
relative binding activity (% of WT) (EGFI-Cr1 A35T): 95%
relative binding activity (% of WT) (EGFI-Cr1 N37R): 94%
relative binding activity (% of WT) (EGFI-Cr1 N42E): 23%
relative binding activity (% of WT) (EGFI-Cr1 N41A): 81%
relative binding activity (% of WT) [2]: 100%
relative binding activity (% of WT) (EGFI-Cr1 N43A): 96%
relative binding activity (% of WT) (EGFI-Cr1 T49A): 94%
relative binding activity (% of WT) (EGFI-Cr1 Q47A): 93%
relative binding activity (% of WT) (EGFI-Cr1 Q24A): 0%
relative binding activity (% of WT) (EGFI-Cr1 R44G): 91%
relative binding activity (% of WT) (EGFI-Cr1 V40E): 93%
relative binding activity (% of WT) (EGFI-Cr1 F39A): 96%
relative binding activity (% of WT) (EGFI-Cr1 E25K): 1%
% of Annexin V + PI staining (untreated background subtracted), NCI-H358, 10 µg/ml mAb, Exp1 [3]: 36%
% of Annexin V + PI staining (untreated background subtracted), NCI-H358, 10 µg/ml mAb, Exp2 [3]: 33%
% of Annexin V + PI staining (untreated background subtracted), NCI-H358, 10 µg/ml mAb, Exp3 [3]: 31%
% of Annexin V + PI staining (untreated background subtracted), NCI-H358, 10 µg/ml mAb, Exp4 [3]: 40%
% of Annexin V + PI staining (untreated background subtracted), NCI-H358, 10 µg/ml mAb, Exp5 [3]: 28%
% Annexin V/PI-positive cells, DLD-1, 1.0 µg/ml mAb [4]: 61%
% Annexin V/PI-positive cells, DLD-1, 3.0 µg/ml mAb [4]: 67%
% Annexin V/PI-positive cells, DLD-1, 10 µg/ml mAb [4]: 72%
% Annexin V/PI-positive cells, FaDu, 1.0 µg/ml mAb [4]: 42%
% Annexin V/PI-positive cells, FaDu, 3.0 µg/ml mAb [4]: 43%
% Annexin V/PI-positive cells, FaDu, 10 µg/ml mAb [4]: 44%
% Annexin V/PI-positive cells, LNCaP, 1.0 µg/ml mAb [4]: 61%
% Annexin V/PI-positive cells, LNCaP, 3.0 µg/ml mAb [4]: 67%
% Annexin V/PI-positive cells, LNCaP, 10 µg/ml mAb [4]: 58%
% Annexin V/PI-positive cells, NCI-H520, 1.0 µg/ml mAb [4]: 24%
% Annexin V/PI-positive cells, NCI-H520, 3.0 µg/ml mAb [4]: 29%
% Annexin V/PI-positive cells, NCI-H520, 10 µg/ml mAb [4]: 34%
% Annexin V/PI-positive cells, NCI-N87, 1.0 µg/ml mAb [4]: 67%
% Annexin V/PI-positive cells, NCI-N87, 3.0 µg/ml mAb [4]: 62%
% Annexin V/PI-positive cells, NCI-N87, 10 µg/ml mAb [4]: 66%
% Annexin V/PI-positive cells, NIH:OVCAR-3, 1.0 µg/ml mAb [4]: 59%
% Annexin V/PI-positive cells, NIH:OVCAR-3, 3.0 µg/ml mAb [4]: 62%
% Annexin V/PI-positive cells, NIH:OVCAR-3, 10 µg/ml mAb [4]: 63%
% Annexin V/PI-positive cells, T-47D, 1.0 µg/ml mAb [4]: 49%
% Annexin V/PI-positive cells, T-47D, 3.0 µg/ml mAb [4]: 54%
% Annexin V/PI-positive cells, T-47D, 10 µg/ml mAb [4]: 56%
